Assay results: patent publication US20150044231A1 (Novo Nordisk, published 2015)
Residue numbers refer to the chain shown, from its start. Numbers in names are those of the source.

How the values were obtained:
His-FcγRI = His-FcγRI (UniProt P12314); assay: SPR (BIAcore T100), Fc variant immobilised, His-FcγR as analyte
His-FcγRIIB = His-FcγRIIB (UniProt P31994); assay: as above
His-FcγRIIA (131R) = His-FcγRIIA (131R) (UniProt P12318); assay: as above
His-FcγRIIA (131H) = His-FcγRIIA (131H) (UniProt P12318); assay: as above
His-FcγRIII (158F) = His-FcγRIII (158F) (UniProt P08637); assay: as above
His-FcγRIII (158V) = His-FcγRIII (158V) (UniProt P08637); assay: as above
human C5a receptor [1] = biological target: T1, human C5a receptor (human, UniProt P21730 1-350); assay: cell-based or functional assay
T1 sequence: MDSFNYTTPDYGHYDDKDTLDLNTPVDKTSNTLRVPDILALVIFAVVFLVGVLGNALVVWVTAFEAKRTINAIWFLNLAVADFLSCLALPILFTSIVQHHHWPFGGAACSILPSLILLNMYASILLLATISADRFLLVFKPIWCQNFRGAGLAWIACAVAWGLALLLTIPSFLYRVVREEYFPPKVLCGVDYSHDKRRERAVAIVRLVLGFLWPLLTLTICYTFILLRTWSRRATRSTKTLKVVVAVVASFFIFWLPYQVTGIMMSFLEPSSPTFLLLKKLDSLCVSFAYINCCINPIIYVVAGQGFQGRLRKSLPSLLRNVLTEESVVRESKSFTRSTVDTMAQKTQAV

human C5a receptor [2] = biological target: T1, human C5a receptor; assay: cell-based or functional assay; remark: listed apart in the source
human C5a receptor [3] = biological target: T1, human C5a receptor; assay: SPA, displacement of 125I-hC5a from RBL-hC5aR membranes
Method: (§1) A detailed description of the SPA is provided in U.S. Pat. No. 4,568,649 and protocols provided by the manufacturer (Amersham Biosciences). Briefly, receptor-carrying membrane fragments purified from RBL-hC5aR cells bind to scintillating micro particles coated with wheat germ agglutinin (WGA). […] Specific for the SPA-principle, only radio isotope and particles in immediate proximity of each other will emit light. […] The % displacement was calculated as follows: […]

human C5a receptor [4] = biological target: T1, human C5a receptor; assay: cell-based or functional assay; remark: listed apart in the source
human C5a receptor [5] = biological target: T1, human C5a receptor; assay: SPA, unlabelled hC5a displacing 125I-hC5a from RBL-hC5aR membranes
Method: as §1

Chain of His-FcγRIIB (P31994 46-217 limits assumed): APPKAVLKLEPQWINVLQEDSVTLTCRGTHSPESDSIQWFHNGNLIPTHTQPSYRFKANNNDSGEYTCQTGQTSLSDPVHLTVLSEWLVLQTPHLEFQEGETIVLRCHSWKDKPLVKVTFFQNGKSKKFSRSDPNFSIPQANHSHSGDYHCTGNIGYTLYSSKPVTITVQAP
Chain of His-FcγRI (P12314 16-288 limits assumed): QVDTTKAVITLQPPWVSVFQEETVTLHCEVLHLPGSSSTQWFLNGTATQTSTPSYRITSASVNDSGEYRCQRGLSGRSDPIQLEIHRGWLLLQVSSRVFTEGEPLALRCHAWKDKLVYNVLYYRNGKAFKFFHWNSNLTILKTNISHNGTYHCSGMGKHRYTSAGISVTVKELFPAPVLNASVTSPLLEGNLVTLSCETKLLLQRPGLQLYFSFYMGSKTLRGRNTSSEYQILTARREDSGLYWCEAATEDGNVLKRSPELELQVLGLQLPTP
Chain of His-FcγRIIA (131R) (P12318 36-218 H167R limits assumed): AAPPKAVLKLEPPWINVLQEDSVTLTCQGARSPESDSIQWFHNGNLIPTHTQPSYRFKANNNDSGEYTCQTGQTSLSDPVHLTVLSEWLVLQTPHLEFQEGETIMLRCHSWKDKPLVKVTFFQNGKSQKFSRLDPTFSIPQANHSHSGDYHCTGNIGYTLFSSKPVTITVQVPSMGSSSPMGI
Chain of His-FcγRIIA (131H) (P12318 36-218 limits assumed): as the sequence (P12318 36-218 H167R limits assumed) above, with R132H counted along it
Chain of His-FcγRIII (158V) (P08637 17-208 F176V limits assumed): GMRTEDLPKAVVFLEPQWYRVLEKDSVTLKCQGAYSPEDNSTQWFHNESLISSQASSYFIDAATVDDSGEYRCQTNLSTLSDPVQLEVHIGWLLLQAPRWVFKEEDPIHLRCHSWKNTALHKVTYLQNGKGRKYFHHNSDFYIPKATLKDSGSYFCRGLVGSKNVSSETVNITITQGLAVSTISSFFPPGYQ
Chain of His-FcγRIII (158F) (P08637 17-208 limits assumed): as the sequence (P08637 17-208 F176V limits assumed) above, with V160F counted along it

Question: How did the Kd (His-FcγRI) turn out when “Ref Ab Q variable region on IgG1 reference (antibody)” was run?
Answer: Its Kd is 0.664 nM.

Question: And the Kd (His-FcγRIIB)?
Answer: The Kd was 420 nM.

Question: What about the Kd (His-FcγRIIA (131R)) of the same molecule?
Answer: Its Kd is 950 nM.

Question: What about the Kd (His-FcγRIIA (131H)) of the same molecule?
Answer: Its Kd is 640 nM.

Question: What about the Kd (His-FcγRIII (158F)) of the same molecule?
Answer: The Kd was 330 nM.

Question: With “Ref Ab Q variable region on IgG2/4 V234A, G236A (antibody)” as the molecule, how does the Kd (His-FcγRIIB) read?
Answer: The Kd was 5340 nM.

Question: With “Ref Ab Q variable region on IgG1 N297Q (antibody)” as the molecule, how does the Kd (His-FcγRI) read?
Answer: The Kd was 360 nM.

Question: For “Ref Ab Q variable region on IgG1 L234A, L235E (antibody)”, which Kd (His-FcγRIII (158V)) is on record?
Answer: The Kd was 960 nM.

Question: Which Kd (His-FcγRI) does the source give for “Ref Ab Q variable region on IgG4 (S228P) N297Q (antibody)” here?
Answer: The Kd was 130 nM.

Question: Which Kd (His-FcγRIIB) does the source give for “Ref Ab Q variable region on IgG1 L234A, L235E, G237A, A330S and P331S (antibody)” here?
Answer: The Kd was 2100 nM.

Question: For “Ref Ab Q variable region on IgG4 (S228P) reference (antibody)”, which Kd (His-FcγRI) is on record?
Answer: The Kd was 2.71 nM.

Question: And the Kd (His-FcγRIIB)?
Answer: Its Kd is 1080 nM.

Question: What about the Kd (His-FcγRIIA (131R)) of the same molecule?
Answer: Its Kd is 800 nM.

Question: What about the Kd (His-FcγRIIA (131H)) of the same molecule?
Answer: The Kd was 3520 nM.

B1: 32F3A6 GL (antibody, human IgG1, V domains shown)
VH: EVQLVESGGGLVQPGGSLRLSCAASGFTFSSYVMHWVRQATGKGLEWVSAIDTGGGTYYADSVKGRFTISRENAKNSLYLQMNSLRAGDTAVYYCARDYYYYASGSYYKAFDIWGQGTMVTVSS
VL: EIVLTQSPGTLSLSPGERATLSCRASQSVSSRYLAWYQQKPGQAPRLLIYGASSRATGIPDRFSGSGSGTDFTLTISRLEPEDFAVYYCQQYGSPLTFGQGTKLEIKR
Question: With B1 as the molecule, how does the “IC50 CD11b up-regulation” value (human C5a receptor [1]) read?
Answer: The value was 0.7 µg/mL.

Question: And the “IC50 CD62L down-regulation” value (human C5a receptor [1])?
Answer: Its value is 0.5 µg/mL.

Question: And the “IC50 Calcium-flux assay” value (human C5a receptor [1])?
Answer: Its value is 1.8 µg/mL.

Question: What about the “IC50, Neutrophil migration (Chemotaxis) Assay” value (human C5a receptor [2]) of the same molecule?
Answer: Its value is 1 µg/mL.

B2: 32F3A6 (antibody, V domains shown)
VH: B1 VH with E6Q, Q13H, A24G, T41P, E72D, G88E, T90M
VL: B1 VL
notes: Human monoclonal antibody from HumAb mice, purified from hybridoma supernatant
Question: Which IC50 (human C5a receptor [3]) does the source give for B2 here?
Answer: The IC50 was 1.9 nM.

Question: And the “Migration of human neutrophils (in % compared to migration in the absence of antibody)” value (human C5a receptor [4])?
Answer: Its value is 2%.

B3: Ref Ab Q variable region on IgG4 (S228P) E233P, F234V, L235A (antibody, part only; not given: Variable regions of Ref Ab Q, not shown: another chain or arm of the molecule)
constant: ASTKGPSVFPLAPCSRSTSESTAALGCLVKDYFPEPVTVSWNSGALTSGVHTFPAVLQSSGLYSLSSVVTVPSSSLGTKTYTCNVDHKPSNTKVDKRVESKYGPPCPPCPAPPVAGGPSVFLFPPKPKDTLMISRTPEVTCVVVDVSQEDPEVQFNWYVDGVEVHNAKTKPREEQFNSTYRVVSVLTVLHQDWLNGKEYKCKVSNKGLPSSIEKTISKAKGQPREPQVYTLPPSQEEMTKNQVSLTCLVKGFYPSDIAVEWESNGQPENNYKTTPPVLDSDGSFFLYSRLTVDKSRWQEGNVFSCSVMHEALHNHYTQKSLSLSLGK
Question: How did the Kd (His-FcγRI) turn out when B3 was run?
Answer: Its Kd is 380 nM.

B4: 35F32A3 (antibody, V domains shown)
VH: QVQLVESGGGLVRPGRSLRLSCAASGFTFRDYGMHWVRQAPGKSLEWVAVIWFDGINKYYGDSVKGRFTISRDNSKNTLYLQMNSLRAEDTAMYYCVGTYFGPGTTEFFQHWGQGTLVTVSS
VL: EIVLTQSPATLSLSPGERATLSCRASQSVSSYLAWYQQKPGQAPRLLIYDASNRATGIPARFSGSGSGTDFTLTISSLEPEDFAVYYCQQRSNWPTFGPGTKVDIKR
notes: as for B2
Question: Which IC50 (human C5a receptor [3]) does the source give for B4 here?
Answer: The IC50 was 0.95 nM.

Question: What about the “Migration of human neutrophils (in % compared to migration in the absence of antibody)” value (human C5a receptor [4]) of the same molecule?
Answer: Its value is 11%.

B5: 35F12A2 (antibody, V domains shown)
VH: QVQLVESGGGVVQPGRSLRLSCVASGFTFSNYGMHWVRQAPGKGLEWVAVIWYDGINKYYADSVKGRFTISRDNSKSTLYLQMNSLRAEDTAVYYCAGTYYTSGSSKHFQPWGQGTLVTVSS
VL: B4 VL with A34S
notes: as for B2
Question: With B5 as the molecule, how does the IC50 (human C5a receptor [3]) read?
Answer: The IC50 was 2.04 nM.

Question: And the “Migration of human neutrophils (in % compared to migration in the absence of antibody)” value (human C5a receptor [4])?
Answer: The value was 19%.

B6: Ref Ab Q variable region on IgG2/IgG4 reference (antibody, part only; not given: Ref Ab Q variable regions, part only)
heavy, part: ASTKGPSVFPLAPCSRSTSESTAALGCLVKDYFPEPVTVSWNSGALTSGVHTFPAVLQSSGLYSLSSVVTVPSSNFGTQTYTCNVDHKPSNTKVDKTVERKCCVECPPCPAPPVAGPSVFLFPPKPKDTLMISRTPEVTCVVVDVSQEDPEVQFNWYVDGVEVHNAKTKPREEQFNSTYRVVSVLTVLHQDWLNGKEYKCKVSNKGLPSSIEKTISKAKGQPREPQVYTLPPSQEEMTKNQVSLTCLVKGFYPSDIAVEWESNGQPENNYKTTPPVLDSDGSFFLYSRLTVDKSRWQEGNVFSCSVMHEALHNHYTQKSLSLSLGK
Question: B6 was tested. Which Kd (His-FcγRIIB) did it give?
Answer: The Kd was 1830 nM.

Question: And the Kd (His-FcγRIIA (131H))?
Answer: Its Kd is 1030 nM.

B7: human C5a (ligand, UniProt P01031 678-751, looked up)
chain: TLQKKIEEIAAKYKHSVVKKCCYDGACVNNDETCEQRAARISLGPRCIKAFTECCVVASQLRANISHKDMQLGR
notes: C5a is only a fragment of it; also called hC5a
Question: B7 was tested. Which IC50 (human C5a receptor [5]) did it give?
Answer: The IC50 was 4.1 nM.

B8: Ref Ab Q variable region on IgG2 reference (antibody, part only; not given: Variable regions of Ref Ab Q, not shown: another chain or arm of the molecule)
constant: ASTKGPSVFPLAPCSRSTSESTAALGCLVKDYFPEPVTVSWNSGALTSGVHTFPAVLQSSGLYSLSSVVTVPSSNFGTQTYTCNVDHKPSNTKVDKTVERKCCVECPPCPAPPVAGPSVFLFPPKPKDTLMISRTPEVTCVVVDVSHEDPEVQFNWYVDGVEVHNAKTKPREEQFNSTFRVVSVLTVVHQDWLNGKEYKCKVSNKGLPAPIEKTISKTKGQPREPQVYTLPPSREEMTKNQVSLTCLVKGFYPSDIAVEWESNGQPENNYKTTPPMLDSDGSFFLYSKLTVDKSRWQQGNVFSCSVMHEALHNHYTQKSLSLSPGK
Question: B8 was tested. Which Kd (His-FcγRIIB) did it give?
Answer: Its Kd is 1540 nM.

Question: And the Kd (His-FcγRIIA (131R))?
Answer: Its Kd is 2790 nM.

Question: What about the Kd (His-FcγRIIA (131H)) of the same molecule?
Answer: The Kd was 220 nM.

Question: And the Kd (His-FcγRIII (158V))?
Answer: Its Kd is 1500 nM.

B9: 35F24A3 (antibody, V domains shown)
VH: EVKLVESGGGLVKPGGSLKLSCSASGFAFSNYDMSWVRQTPEKRLEWVAAFSSDGYTFYPDSLKGRFTISRDNARNTLYLQMSSLGSEDTALYCCARHADYANYPVMDYWGQGTSVTVSS
VL: DIQMTQSPSSLSASVGDRVTITCRASQGISSWLAWYQQKPEKAPKSLIYAASSLQSGVPSRFSGSGSGTDFTLTISSLQPEDFATYYCQQYNSYPRTFGQGTKVEIKR
notes: as for B2
Question: B9 was tested. Which IC50 (human C5a receptor [3]) did it give?
Answer: The IC50 was 2.97 nM.

Question: And the “Migration of human neutrophils (in % compared to migration in the absence of antibody)” value (human C5a receptor [4])?
Answer: The value was 30%.
